In article PMC10665946:

Experiments:
[1] = molecular target: V113A LukB CC8 LukAB (S. aureus); test: negative stain electron microscopy; 0.03 mg/ml protein in TBS + 20% v/v MPD, RT 45 min; uranyl formate stain; 2D class averages
[2] = molecular target: V113A LukB CC8 LukAB (S. aureus); test: negative stain electron microscopy; 0.03 mg/ml protein in TBS + 40% v/v MPD, RT 45 min; uranyl formate stain; 2D class averages
[3] = molecular target: WT CC8 LukAB (leukocidin A/leukocidin B) heterodimer (S. aureus); test: as above

For V113A LukB CC8 LukAB (complex), the stoichiometry N [1] was 8 and the stoichiometry N [2] was 8.

“WT CC8 LukAB (leukocidin A/leukocidin B) heterodimer (complex)” was tested, and the stoichiometry N [3] was 8.
